Source: patent CN113214400A (FUKANG SHANGHAI HEALTH TECH CO LTD, dated 2021)

Tests used:
[1] = molecular target: T1, 人PD-L1 (全长, 表达于CHO-K1细胞 WBP315.CHO-K1.hPro1.C11) (human, UniProt Q9NZQ7 19-290); assay: flow cytometry on CHO-K1 cells expressing human PD-L1
T1 construct: whole, on cells; also called human PD-L1; hPD-L1

[2] = molecular target: T2, 小鼠PD-L1 (全长, 表达于293F细胞 WBP315.293F.mPro1.C1) (mouse, UniProt Q9EP73 19-290); assay: flow cytometry on 293F cells expressing mouse PD-L1
T2 construct: whole, on cells; also called mouse PD-L1
T2 sequence (Q9EP73 19-290): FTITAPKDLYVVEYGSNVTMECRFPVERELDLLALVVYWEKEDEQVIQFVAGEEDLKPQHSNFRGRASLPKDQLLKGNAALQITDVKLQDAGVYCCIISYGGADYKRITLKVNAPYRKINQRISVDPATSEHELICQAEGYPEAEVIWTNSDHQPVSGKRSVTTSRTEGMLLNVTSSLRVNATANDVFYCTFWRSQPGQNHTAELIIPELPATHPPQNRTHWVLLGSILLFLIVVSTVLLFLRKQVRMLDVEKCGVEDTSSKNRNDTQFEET

T1 sequence (Q9NZQ7 19-290): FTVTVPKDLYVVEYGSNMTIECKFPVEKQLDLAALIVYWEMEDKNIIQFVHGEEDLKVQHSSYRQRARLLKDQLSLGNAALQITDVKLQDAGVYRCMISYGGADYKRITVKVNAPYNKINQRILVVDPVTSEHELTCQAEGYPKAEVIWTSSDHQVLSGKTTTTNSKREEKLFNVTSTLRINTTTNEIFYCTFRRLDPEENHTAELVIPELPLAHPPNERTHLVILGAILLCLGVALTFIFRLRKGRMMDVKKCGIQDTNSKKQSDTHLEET

B1: W3156-AP3R2-1A3-z12-hIgG1 (Fc fusion)
chain: EVQLVESGGGLVQPGGSLRLSCAASGHFSNLAVNWFRQAPGKERELVAGILWSGGSTFYADSVKGRFTISRGNAENMLYLQMNSLRAEDTAVYYCNTGTNWGQGTLVTVSS
notes: tested as hIgG1 format; also called 抗PD-L1 VHH抗体; 亲本抗体 (PD-L1 arm); not shown: hIgG1 part (hinge/Fc) of the VHH-hIgG1 format
B1: binds [1]; binds [2].
